This is an account of results in patent US20260098089A1 (KYMAB, published 2026).

The target of assay [1] is T1, Human CD7 on cells (CEM and other T-ALL cells, peripheral NK and T cells) (human, UniProt P09564 26-238).
T1 sequence: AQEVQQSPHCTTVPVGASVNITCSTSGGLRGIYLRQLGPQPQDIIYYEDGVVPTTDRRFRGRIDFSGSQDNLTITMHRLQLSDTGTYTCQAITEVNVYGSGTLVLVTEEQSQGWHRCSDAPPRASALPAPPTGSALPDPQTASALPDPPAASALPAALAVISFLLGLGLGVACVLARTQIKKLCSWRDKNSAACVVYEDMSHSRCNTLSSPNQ
The experiment in a line: cell-based or functional assay.

The target in assay [2] is T2, Human CD7 protein (soluble) (human, UniProt P09564 26-180).
T2 construct: also called hCD7; human antigen
T2 sequence: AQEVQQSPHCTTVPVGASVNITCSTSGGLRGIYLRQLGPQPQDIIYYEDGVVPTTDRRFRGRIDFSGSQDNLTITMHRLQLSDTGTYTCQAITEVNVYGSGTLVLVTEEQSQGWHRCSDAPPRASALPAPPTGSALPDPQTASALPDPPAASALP
The experiment in a line: SPR, captured mAb, global fit 1:1 model.

In assay [3] the target is T3, Cynomolgus monkey (Macaca fascicularis) CD7 protein (soluble) (cynomolgus monkey (Macaca fascicularis)).
T3 construct: also called Cynomolgus CD7; cynomolgus antigen
T3 chain: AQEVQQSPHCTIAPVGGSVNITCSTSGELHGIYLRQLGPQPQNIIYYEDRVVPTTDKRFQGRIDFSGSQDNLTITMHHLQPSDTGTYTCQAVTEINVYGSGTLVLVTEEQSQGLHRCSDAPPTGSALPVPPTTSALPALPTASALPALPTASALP
As to the kind of experiment: SPR, captured mAb, global fit 1:1 model.

Assay [4] concerns the target T3, Cynomolgus monkey (Macaca fascicularis) …. As to the kind of experiment: SPR, mAb captured, single concentration of cynomolgus CD7 protein as analyte.
Assay [5] addresses T1, Human CD7 on cells (CEM and other T-ALL …). The experiment in a line: cell-based or functional assay. The source holds these as a separate data set.
Assay [6] deals with T2, Human CD7 protein (soluble). As to the kind of experiment: Affinity to soluble CD7 (biophysical summary; SPR).
For assay [7], the target named is T3, Cynomolgus monkey (Macaca fascicularis) …. The experiment in a line: Affinity to soluble CD7 (biophysical summary; SPR).

B1: 1734F05 E345R (antibody, V domains shown)
VH: EVQLVESGGGLVQPGGSLRLSCAASGFTFSRYAMSWVRQAPGKGLEWVSSISASGATTFYADPVKGRFTISRDNSKKTLYLQMNSLRAEDTAVYYCAKDQDFDILTGYLNWFDPWGQGTLVTVSS
VL: EIVLTQSPATLSLSPGERVILSCRVSQSVSSYLAWYQQKPGQAPRLLIYDTSNRATGIPARFSGSGSGTDFTLTISSLEPEDFAVYYCQQRRNWPLTFGGGTKVEIK
Take B1: in assay [1], the “EC50, CDC assay on CEM cells” value is 1.16 nM and the “Maximum killing, CDC assay on CEM cells” value was 100%.

B2: 1734F05 (antibody, V domains shown)
VH: B1 VH
VL: B1 VL
In the case of B2, in assay [2], binding was characterised by a dissociation constant (Kd) of 0.98 nM, the koff is 0.000356 s⁻¹ and the kon was 369000 M⁻¹ s⁻¹. For the same molecule, in assay [3], binding was put at a Kd of 3.9 nM, the koff was 0.000642 s⁻¹ and the kon is 165000 M⁻¹ s⁻¹.

B3: 1730C02 E345R (antibody, human IgG1, V domains shown)
VH: EVQLVESGGGLVQLGGSLRLSCAASGLTFNNYAMSWVRQAPGKGLEWVSTISGSGGSTYYADSAKGRFTISRDNSKNTLYLQMNSLRAEDTAVYYCAKGGLLYFGEFHFDYWGQGTLVTVSS
VL: DIQMTQSPSSLSASVGDRVTIICRASQGISNYLAWFQQKPGKAPKSLIYAASSLQSGVPSKFSGSGSGTDFTLTISSLQPEDFATYYCQHYNSYPLTFGGGTKVEIK
B3: in assay [1], the “EC50, CDC assay on CEM cells” value came to 0.00037 nM and the “Maximum killing, CDC assay on CEM cells” value turned out to be 93.2%.

B4: 1741E04 E345R (antibody, human IgG1, V domains shown)
VH: EVQLVESGGGLVKPGGSPRLSCAAYGVTFSNAWMSWVRQAPGKGLEWVGRIKSKTDGGTTDYAAPVKGRFTISRDDSKNTLYLQMNSLKTEDTAVYYCTIEAVAGHFDYWGQGTLVTVSS
VL: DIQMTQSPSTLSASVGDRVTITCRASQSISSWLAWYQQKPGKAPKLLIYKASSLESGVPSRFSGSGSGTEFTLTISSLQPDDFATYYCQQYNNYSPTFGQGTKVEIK
As to B4, in assay [1], the “EC50, CDC assay on CEM cells” value came to 0.12 nM and the “Maximum killing, CDC assay on CEM cells” value was determined as 99.8%. Besides, the binding result in assay [4] is given as “no binding”.

B5: 1741G09 E345R (antibody, V domains shown)
VH: EVQLVESGGGLVKPGGSLRLSCAASGFSFSVAWMSWVRQAPGKGLEWVGRIKRKTDGGTTDYAAPVKGRFIISRDDSIKALYLQMNSLKTEDTAVYYCTTDPLLRYSDWLSHSLMGDVWGQGTTVTVSS
VL: DIQMTQSPSSLSASVGDRVAITCRTSQNINNYLNWYQQKPGKAPKPLIYAASSLQSGVPSRFSGSGSGTDFTLTISTLHPEDFATYYCQQTYSIPLTFGGGTKVEIK
Consider B5, for which, in assay [1], the “EC50, CDC assay on CEM cells” value was determined as 0.12 nM and the “Maximum killing, CDC assay on CEM cells” value worked out at 99.5%.

B6: 1741G09 (antibody, V domains shown)
VH: B5 VH
VL: B5 VL
notes: also called 1741G9
On to B6, for which, in assay [2], the Kd stood at 4.74 nM, the koff is 0.00192 s⁻¹ and the kon is 416000 M⁻¹ s⁻¹. Besides, in assay [3], the Kd came to 0.145 nM and the kon was 424000 M⁻¹ s⁻¹.

B7: 1741G09 HuIgG1 E430G C-term Lysine clipped, Phe variant of light chain (antibody, V domains shown)
VH: B5 VH
VL: DIQMTQSPSSLSASVGDRVAITCRTSQNINNYLNWYQQKPGKAPKPLIYAASSLQSGVPSRFSGSGSGTDFTLTISTLHPEDFATYYCQQTYSIPLTFGGGTKVEIKR
notes: also called 1741G09 E430G; G09 E430G
With B7, in assay [5], the “CDC EC50; PDATLLAd2R, PDATALL12, PDTALL11 (intermediate to low CD7 expression)” value is less than 0.4 nM; the “CDC EC50; PDTALL13, PDTALL18 (much low CD7 expression)” value was less than 0.6 nM; the “CDC EC50; PDTALL46 and PDTALLAd2R” value was approximately 0.35 nM; the “CDC assay on isolated peripheral NK cells, EC50” value was approximately 0.3 nM. Moreover, binding in assay [6] was put at a Kd of 4.75 nM. Further, binding in assay [7] was characterised by a dissociation constant (Kd) of 0.15 nM.
